Measured values reported in paper PMC12884772, “Macrophagic Sclerostin Loop2‐ApoER2 Interaction Required by Sclerostin for Cardiovascular Protective Action” (Advanced Science, 2025).

Target: His-sclerostin loop2 (Limits are not printed (Table S1 not shown). Loop2 taken by convention as the cystine-knot segment Cys-Cys, mature 84-109 in mouse. The paper's mature numbering (I94..W99, with V97 specific to mouse))
Sequence (chain, as listed by the source): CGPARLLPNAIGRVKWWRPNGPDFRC
Experiment: BLI; His-sclerostin loop2 loaded on anti-penta-HIS (HIS1K) biosensors, immersed in ApoER2-LA7 at different concentrations
Conditions: both partners purified

B1: ApoER2-LA7 (P290-L326) (peptide)
peptide: PCRENEFQCGDGTCVLAIKRCNQERDCPDGSDEAGCL
notes: LDLR type A repeat 7 (LA7) of ApoER2, P290-L326; The form with D-residues at the first and last three positions was used only in vivo and is not this molecule; also called ApoER2-Pep; ApoER2 peptide tool
Kd: 1900 nM
